Paper PMC8561734, “Structural basis for SdgB- and SdgA-mediated glycosylation of staphylococcal adhesive proteins” (Acta Crystallographica. Section D, Structural Biology, 2021)
Where no end group is shown, it is not given here. The star is where a group is joined. βGlcNAc = CC(=O)N[C@@H]1[C@@H](O)[C@H](O)[C@@H](CO)O[C@H]1*

B3: SdgB (glycosyltransferase, Staphylococcus aureus USA300) (enzyme)
chain: MNYFVGNSLGVNLTGIEKAIINRLNLFKEMGRPAQCVFLSWNRYLYRNAQNYITSSDYINMYDFFQEATYLERNEPFDWLSYWTDECHYTLKHVENSHDFRIYDQERFLMYAHFQDPKYRILDYVNHFDSQRRKVKRDFYDVRGFLSCSRILVDKQQTLCEFFYNPEGDTKLEKYFSYKDGKPEVQKIIVYYANKQYFFNNETELGAFFIKQLYQHGDLFFSDRNVYTAPIFNLTPESIPVVAVLHSTHIKNIDALDSSPFKNVYKAMFENLSRYRAIIVSTEQQKLDVEKRINHTIPVVNIPVGYSETIDTPVQTLDQRSVKLISVARYSPEKQLHQQIELIKRLVSYVPKIELHMYGFGSESKKLNELIQKYGLENHVYLRGFLSNLDQEYSDAYLSLITSNMEGFSLALLESLAHGVPVISYDIKYGPNELITSDFNGYLITKNDEDALFDKVKYVIDHPEVQQRLSKGSLAKAQQYSKASLIKQWDQFVRLI
notes: SdgB, O-GlcNAc glycosyltransferase of S. aureus strain USA300, gene SAUSA300_0550, cloned into pET-21a(+); theoretical monomer mass 59.5 kDa; A selenomethionine-substituted form was used only for phasing; also called SdgB_(quaternary); source: E. coli Rosetta 2(DE3)pLysS, purified (HiTrap Chelating, HiTrap Q, Superdex 200)

Legend:
SdgB [1] = biological target: T1, SdgB (Staphylococcus aureus, UniProt A0A0H2XGN0); assay: X-ray crystallography; settings: donor-binding site, closed form
T1 construct: gene SAUSA300_0550; full-length, C-terminal His6 tag (pET-21a), E. coli Rosetta 2(DE3)pLysS; residues 1-496 compared

SdgB [2] = biological target: T1, SdgB; assay: MALDI-MS O-GlcNAcyltransferase assay; assay type: biochemical; settings: 10 mM donor; acceptor DSD or DSDSD 3 mM, 5 uM enzyme, 20 mM HEPES pH 7.5, 150 mM NaCl, 1 mM MgCl2, 37 C, 2 h
[3] = biological target: SdgA (glycosyltransferase, Staphylococcus aureus USA300) (Staphylococcus aureus (strain USA300)); assay: AUC; sedimentation velocity; SdgA at 4.5 µM; 30 000 rev/min
[4] = biological target: SdgA (glycosyltransferase, Staphylococcus aureus USA300) (Staphylococcus aureus (strain USA300)); assay: AUC; sedimentation equilibrium; SdgB 1 µM, SdgA 4.5 µM; 20 mM HEPES pH 7.5, 150 mM NaCl, 1 mM MgCl2; 9000 and 15 000 rev/min; global fit to a monomer–dimer self-association model (dimer to monomers)
[5] = biological target: T2, SdgB (glycosyltransferase, Staphylococcus aureus USA300) (Staphylococcus aureus (strain USA300), UniProt A0A0H2XGN0 1-496); assay: SPR
T2 chain: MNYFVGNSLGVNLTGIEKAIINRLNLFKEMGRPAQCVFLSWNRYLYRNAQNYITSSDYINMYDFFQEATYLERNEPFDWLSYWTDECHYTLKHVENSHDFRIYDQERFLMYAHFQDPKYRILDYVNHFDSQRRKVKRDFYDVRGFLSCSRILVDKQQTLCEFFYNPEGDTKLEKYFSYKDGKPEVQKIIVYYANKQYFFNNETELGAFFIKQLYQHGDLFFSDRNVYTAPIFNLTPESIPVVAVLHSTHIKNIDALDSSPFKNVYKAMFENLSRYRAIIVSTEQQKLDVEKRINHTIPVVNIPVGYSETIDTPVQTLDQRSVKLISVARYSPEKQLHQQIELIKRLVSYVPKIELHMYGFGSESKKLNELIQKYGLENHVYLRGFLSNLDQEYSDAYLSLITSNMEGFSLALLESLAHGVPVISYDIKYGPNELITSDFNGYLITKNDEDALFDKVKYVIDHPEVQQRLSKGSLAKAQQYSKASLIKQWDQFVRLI

[6] = biological target: B3; assay: SPR; SdgB immobilised on a PEG-based sensor chip (1062 RU); SdgA 0.39–25.0 µM as analyte; HBS-EP (10 mM HEPES pH 7.4, 150 mM NaCl, 0.03 mM EDTA, 0.005% Tween 20); 20°C; kinetic fit with Scrubber2; settings: both partners purified
[7] = biological target: B3; assay: crystal structure; SdgB crystal (0.2 M MgCl2, 0.1 M Tris–HCl pH 8.5, 25% PEG 3350) quick-soaked with 6.14 mM UDP and 2.45 mM 5-mer peptide DSDSD for 30 min; settings: both partners purified
[8] = biological target: the molecule itself; assay: AUC; sedimentation equilibrium; SdgB 1 µM, SdgA 4.5 µM; 20 mM HEPES pH 7.5, 150 mM NaCl, 1 mM MgCl2; 9000 and 15 000 rev/min; global fit to a monomer–dimer self-association model (dimer to monomers)
[9] = biological target: the molecule itself; assay: SEC-MALS; SdgB 0.22 mg injected; Superdex 200 Increase 10/300 GL; 20 mM Tris–HCl pH 7.5, 200 mM NaCl; 0.5 ml/min
[10] = biological target: B3; assay: crystal structure; SdgB crystal (20 mM CaCl2, 85 mM trisodium citrate pH 5.6, 25.5% PEG 4000, 15% glycerol) soaked with 2.66 mM 9-mer SD-repeat peptide and 9.60 mM UDP-GlcNAc for 7.5 h; settings: both partners purified

Q: For CC(=O)N[C@H]1C(O)O[C@H](CO)[C@@H](O)[C@@H]1O (some centres unmarked) [GlcNAc], which X-ray crystallography (SdgB [1]; cleaved from soaked UDP-GlcNAc, with UDP and diGlcNAcylated 9-mer) is on record?
A: distinct electron density for UDP and GlcNAc was observed in the cleft

Q: For CC(=O)N[C@H]1[C@@H](OP(=O)(O)OP(=O)(O)OC[C@H]2O[C@@H](n3ccc(=O)[nH]c3=O)[C@H](O)[C@@H]2O)O[C@H](CO)[C@@H](O)[C@@H]1O [UDP-GlcNAc], which “MALDI-MS O-GlcNAcyltransferase assay” value (SdgB [2]) is on record?
A: converted into mono-GlcNAcylated forms by SdgB but not by SdgA

Q: For O=c1ccn([C@@H]2O[C@H](COP(=O)(O)OP(=O)(O)O)[C@@H](O)[C@H]2O)c(=O)[nH]1 [UDP], which X-ray crystallography (SdgB [1]; complex with cleaved GlcNAc and diGlcNAcylated 9-mer, 2.5 A, also seen with DSDSD in a second structure (7VFM)) is on record?
A: distinct electron density for UDP and GlcNAc was observed in the cleft

Q: For “SdgA (glycosyltransferase, Staphylococcus aureus USA300) (from UniProt A0A0H2XI10 1-490) (enzyme)”, which stoichiometry N [3] is on record?
A: 2

Q: What about the Kd [4] of the same molecule?
A: 14100 nM

B1: SdgA (glycosyltransferase, Staphylococcus aureus USA300) (enzyme)
chain: MNYILGTILESKITGVEKAQINRLKLFKQHGISSKCVYVKWNPYSYTYAKQHQIENDVFTMYDYFQKAINYKKTKQVNWIQYWEKSCRYTLKFVENSNDVRIYDEEQFVMYAHFLDKQYHQLNYVNYFDHKRRKVKRELYDGRGFLSCSRILGEGQRIVLENYYTPNGEIVIQKYFDDIKGKNTLTKVILNEDQHQQFFDTEDELVQYFLHQLCKNNDQIILDRPHELGNVIAGLNQSIPVIVVLHSTHLSGAGNGIKSFYKTVFNNLTRYKAIVVSTEKQCQDISQYIENKIPVINIPVGYVANLKYQFDINQKEKNHIISIARLVENKQIKHQIEVIKQLVTKHPNIQLNIYGHGNGLSEYRQLVEDYHLSEHVKFHGFKTHINEEIAKAELMLSTSKMEGFGLAILESLSVGTPVISYDVDYGPSELIQDGFNGYLVPQGDINQMVEKVDQLLNNTQKLQQFSINSIESAQQYNATTISTKWQNILN
notes: SdgA, glycosyltransferase of S. aureus strain USA300, gene SAUSA300_0549, cloned into pET-21a(+); theoretical monomer mass 60.4 kDa; source: E. coli Rosetta 2(DE3)pLysS, purified (HiTrap Chelating, HiTrap Q, Superdex 200)
Q: With B1 as the molecule, how does the koff [5] read?
A: 0.000496 s⁻¹

Q: And the Kd [6]?
A: 393 nM

B2: 5-mer SD-repeat peptide Asp-Ser-Asp-Ser-Asp (DSDSD) (peptide)
peptide: DSDSD
notes: serine–aspartate repeat as in the SDR domains of staphylococcal SDR proteins (ClfA and others); no one parent protein is named; only SDSD was modelled in the structure; also called 5-mer SDR peptide; source: synthetic peptide
Q: Does B2 bind [7]?
A: binds

Q: With B3 as the molecule, how does the Kd [8] read?
A: 926 nM

Q: What about the “stoichiometry N” value [9] of the same molecule?
A: 2

B4: diGlcNAcylated 9-mer SD-repeat peptide (DSDSDSDSD) (peptide)
peptide: DSDS(βGlcNAc)DSDS(βGlcNAc)D
notes: serine–aspartate repeat as in the SDR domains of staphylococcal SDR proteins (ClfA and others); no one parent protein is named; Asp1 not modelled in the structure; The peptide was added unmodified; also called GlcNAcylated SD-repeat peptide (9-mer); O-GlcNAcylated SDR peptide (9-mer); source: 9-mer peptide soaked into the SdgB crystal with UDP-GlcNAc and glycosylated in the crystal
Q: Does B4 bind [10]?
A: binds
